OG = Oregon Green 488 (6-isomer carboxylic acid) on Lys side chain

Test [1] has as its target aminopeptidase N isoform CD13 (APN/CD13) on HT-1080 human fibrosarcoma cells (human) (UniProt P15144). Nature of the test: flow cytometry on HT-1080 cells.
The target is the same in test [2]. The test can be described thus: flow cytometry on CD13-positive HT-1080 cells; reference: liposome with a linear peptide.
Test [3] has as its target T1, aminopeptidase N isoform CD13 (APN/CD13) on HT-1080 human fibrosarcoma cells (human, UniProt P15144 2-967).
T1 construct: whole, on cells; also called CD13/APN marker
The test can be described thus: flow cytometry on CD13-positive HT-1080 cells. How it is done:
To determine the half maximal effective concentration (EC₅₀) of cK(OG)NGRE (SEQ ID NO:2) and low temperature sensitive liposomes targeted with 5 mol % DSPE-PEG-cNGR, flow cytometry was performed according to standard procedures with HT-1080 cells. Approximately 94% of the HT-1080 cells were positive for the WM15 antibody indicating the presence of CD13 on these cells.
(In flow cytometry, cells or beads pass a laser one at a time.)

T1 sequence (P15144 2-967): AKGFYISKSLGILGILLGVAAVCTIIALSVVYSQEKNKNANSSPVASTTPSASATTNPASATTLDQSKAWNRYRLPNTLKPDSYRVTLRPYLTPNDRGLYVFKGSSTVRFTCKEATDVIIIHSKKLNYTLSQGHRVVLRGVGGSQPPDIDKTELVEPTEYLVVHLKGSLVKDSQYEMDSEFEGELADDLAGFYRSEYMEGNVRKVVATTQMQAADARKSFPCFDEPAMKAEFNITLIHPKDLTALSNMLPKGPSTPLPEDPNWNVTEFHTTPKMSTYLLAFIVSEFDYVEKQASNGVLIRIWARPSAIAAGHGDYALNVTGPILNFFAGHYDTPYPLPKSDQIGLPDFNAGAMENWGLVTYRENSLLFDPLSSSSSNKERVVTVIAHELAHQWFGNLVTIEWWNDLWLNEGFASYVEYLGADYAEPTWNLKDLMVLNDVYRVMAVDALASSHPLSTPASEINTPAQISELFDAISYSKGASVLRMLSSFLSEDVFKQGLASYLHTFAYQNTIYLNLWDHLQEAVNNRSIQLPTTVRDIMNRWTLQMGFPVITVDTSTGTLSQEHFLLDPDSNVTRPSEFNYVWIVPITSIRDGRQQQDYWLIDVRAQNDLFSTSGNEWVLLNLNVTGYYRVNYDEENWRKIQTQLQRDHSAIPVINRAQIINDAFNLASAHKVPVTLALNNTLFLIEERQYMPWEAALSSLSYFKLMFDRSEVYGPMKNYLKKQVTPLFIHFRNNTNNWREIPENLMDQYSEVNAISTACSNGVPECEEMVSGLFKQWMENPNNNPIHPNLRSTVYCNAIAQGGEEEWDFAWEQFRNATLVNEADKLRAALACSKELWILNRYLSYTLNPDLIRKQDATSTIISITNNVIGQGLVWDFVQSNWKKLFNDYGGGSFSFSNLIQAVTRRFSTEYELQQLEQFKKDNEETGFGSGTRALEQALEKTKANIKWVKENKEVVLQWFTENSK
Sequence of aminopeptidase N isoform CD13 (APN/CD13) on HT-1080 human fibrosarcoma cells (human) (P15144 2-967): as above

For the molecule “Anti-CD13 monoclonal antibody (WM15, Alexa Fluor 488-conjugated)”, the percent of cells positive in test [1] stood at 94%.

B1: low temperature sensitive liposomes targeted with 5 mol % DSPE-PEG-cNGR (peptide)
peptide: KNGRE
modifications: cyclized cKNGRE; conjugated to DSPE-PEG2000CH2COOH (DSPE-PEG-cNGR conjugate 7) and built into a liposome (DPPC:MSPC:DSPE-PEG-cNGR 86.3:9.7:5)
On to B1, for which the fold lower binding concentration against the liposome with a linear peptide in test [2] was 3.5 fold.

B2: linear form of an NGR-containing peptide (SEQ ID NO:4) (peptide)
peptide: KNGRE
notes: also called linear NGR peptide; free linear NGR peptide
For B2, the EC50 (as a rule, the concentration needed to bring the measured effect to its halfway point) in test [3] was 220 µM.

B3: cyclic cK(OG)NGRE (SEQ ID NO:2) (peptide)
peptide: cyclo(K(OG)NGRE)
modifications: also: Glu side chain coupled to Rink amide resin (side-chain amide)
notes: also called compound 6; NGR-OG agent
The molecule B3 yielded a 50% effective concentration (EC50) in test [3] of 61 µM.

(Values after patent publication US20110200528A1 (GOVERNMENT OF THE UNITED STATES OF AMERICA, published 2011).)
